Series [1] concerns the target HA-tagged human eIF5A1 (wild type), in vitro translated from pHM6-HA-A1.
Series [2] has as its target HA-tagged human eIF5A1D6E, in vitro translated from pHM6-HA-A1(D6E).
Series [3] deals with HA-tagged human eIF5A1D6E/K50R, in vitro translated from pHM6-HA-A1(D6E/K50R).

B1: recombinant caspase 3 (Calbiochem) (protein)
chain: SGISLDNSYKMDYPEMGLCIIINNKNFHKSTGMTSRSGTDVDAANLRETFRNLKYEVRNKNDLTREEIVELMRDVSKEDHSKRSSFVCVLLSHGEEGIIFGTNGPVDLKKITNFFRGDRCRSLTGKPKLFIIQACRGTELDCGIETDSGVDDDMACHKIPVEADFLYAYSTAPGYYSWRNSKDGSWFIQSLCAMLKQYADKLEFMHILTRVNRKVATEFESFSFDATFHAKKQIPCIVSMLTKELYFYH
For the protein B1, in series [1], the “in vitro cleavage of the biotin-labelled translation product by recombinant caspase (SDS-PAGE, Streptavidin-HRP)” value (“in vitro cleavage” below) was “The wild-type eIF5A1 is cleaved by caspases 2, 3, 6, 7, 8, 9, and 10”.

B2: recombinant caspase 2 (Calbiochem) (protein)
chain: GPVCLQVKPCTPEFYQTHFQLAYRLQSRPRGLALVLSNVHFTGEKELEFRSGGDVDHSTLVTLFKLLGYDVHVLCDQTAQEMQEKLQNFAQLPAHRVTDSCIVALLSHGVEGAIYGVDGKLLQLQEVFQLFDNANCPSLQNKPKMFFIQACRGDETDRGVDQQDGKNHAGSPGCEESDAGKEKLPKMRLPTRSDMICGYACLKGTAAMRNTKRGSWYIEALAQVFSERACDMHVADMLVKVNALIKDREGYAPGTEFHRCKEMSEYCSTLCRHLYLFPGHPPT
As to B2, in series [1], the “in vitro cleavage” value was “The wild-type eIF5A1 is cleaved by caspases 2, 3, 6, 7, 8, 9, and 10”.

B3: recombinant caspase 8 (Calbiochem) (protein)
chain: SESQTLDKVYQMKSKPRGYCLIINNHNFAKAREKVPKLHSIRDRNGTHLDAGALTTTFEELHFEIKPHDDCTVEQIYEILKIYQLMDHSNMDCFICCILSHGDKGIIYGTDGQEAPIYELTSQFTGLKCPSLAGKPKVFFIQACQGDNYQKGIPVETDSEEQPYLEMDLSSPQTRYIPDEADFLLGMATVNNCVSYRNPAEGTWYIQSLCQSLRERCPRGDDILTILTEVNYEVSNKDDKKNMGKQMPQPTFTLRKKLVFPSD
Consider B3, for which the “in vitro cleavage” value in series [1] is “The wild-type eIF5A1 is cleaved by caspases 2, 3, 6, 7, 8, 9, and 10”; in series [2], “HA-tagged eIF5A1D6E and eIF5A1D6E/K50R are effectively cleaved in vitro by caspases 3, 7 and 8”; in series [3], “HA-tagged eIF5A1D6E and eIF5A1D6E/K50R are effectively cleaved in vitro by caspases 3, 7 and 8”.

B4: recombinant caspase 10 (Calbiochem) (protein)
chain: VKTFLEALPQESWQNKHAGSNGNRATNGAPSLVSRGMQGASANTLNSETSTKRAAVYRMNRNHRGLCVIVNNHSFTSLKDRQGTHKDAEILSHVFQWLGFTVHIHNNVTKVEMEMVLQKQKCNPAHADGDCFVFCILTHGRFGAVYSSDEALIPIREIMSHFTALQCPRLAEKPKLFFIQACQGEEIQPSVSIEADALNPEQAPTSLQDSIPAEADFLLGLATVPGYVSFRHVEEGSWYIQSLCNHLKKLVPRMLKFLEKTMEIRGRKRTVWGAKQISATSLPTAISAQTPRPPMRRWSSVS
As to B4, the “in vitro cleavage” value was “The wild-type eIF5A1 is cleaved by caspases 2, 3, 6, 7, 8, 9, and 10” in series [1]; “are not efficiently cleaved by caspases 9 and 10” in series [2]; “are not efficiently cleaved by caspases 9 and 10” in series [3].

B5: recombinant caspase 6 (Calbiochem) (protein)
chain: AFYKREMFDPAEKYKMDHRRRGIALIFNHERFFWHLTLPERRGTCADRDNLTRRFSDLGFEVKCFNDLKAEELLLKIHEVSTVSHADADCFVCVFLSHGEGNHIYAYDAKIEIQTLTGLFKGDKCHSLVGKPKIFIIQACRGNQHDVPVIPLDVVDNQTEKLDTNITEVDAASVYTLPAGADFLMCYSVAEGYYSHRETVNGSWYIQDLCEMLGKYGSSLEFTELLTLVNRKVSQRRVDFCKDPSAIGKKQVPCFASMLTKKLHFFPKSN
In the case of B5, in series [1], the “in vitro cleavage” value is “The wild-type eIF5A1 is cleaved by caspases 2, 3, 6, 7, 8, 9, and 10”.

B6: recombinant caspase 9 (Calbiochem) (protein)
chain: MDEADRRLLRRCRLRLVEELQVDQLWDALLSRELFRPHMIEDIQRAGSGSRRDQARQLIIDLETRGSQALPLFISCLEDTGQDMLASFLRTNRQAAKLSKPTLENLTPVVLRPEIRKPEVLRPETPRPVDIGSGGFGDVGALESLRGNADLAYILSMEPCGHCLIINNVNFCRESGLRTRTGSNIDCEKLRRRFSSLHFMVEVKGDLTAKKMVLALLELAQQDHGALDCCVVVILSHGCQASHLQFPGAVYGTDGCPVSVEKIVNIFNGTSCPSLGGKPKLFFIQACGGEQKDHGFEVASTSPEDESPGSNPEPDATPFQEGLRTFDQLDAISSLPTPSDIFVSYSTFPGFVSWRDPKSGSWYVETLDDIFEQWAHSEDLQSLLLRVANAVSVKGIYKQMPGCFNFLRKKLFFKTS
On to B6, for which the “in vitro cleavage” value is “The wild-type eIF5A1 is cleaved by caspases 2, 3, 6, 7, 8, 9, and 10” in series [1]; “are not efficiently cleaved by caspases 9 and 10” in series [2]; “are not efficiently cleaved by caspases 9 and 10” in series [3].

B7: recombinant caspase 7 (Calbiochem) (protein)
chain: AKPDRSSFVPSLFSKKKKNVTMRSIKTTRDRVPTYQYNMNFEKLGKCIIINNKNFDKVTGMGVRNGTDKDAEALFKCFRSLGFDVIVYNDCSCAKMQDLLKKASEEDHTNAACFACILLSHGEENVIYGKDGVTPIKDLTAHFRGDRCKTLLEKPKLFFIQACRGTELDDGIQADSGPINDTDANPRYKIPVEADFLFAYSTVPGYYSWRSPGRGSWFVQALCSILEEHGKDLEIMQILTRVNDRVARHFESQSDDPHFHEKKQIPCVVSMLTKELYFSQ
In the case of B7, the “in vitro cleavage” value in series [1] was “The wild-type eIF5A1 is cleaved by caspases 2, 3, 6, 7, 8, 9, and 10”.

B8: recombinant caspase 1 (Calbiochem) (protein)
chain: NPAMPTSSGSEGNVKLCSLEEAQRIWKQKSAEIYPIMDKSSRTRLALIICNEEFDSIPRRTGAEVDITGMTMLLQNLGYSVDVKKNLTASDMTTELEAFAHRPEHKTSDSTFLVFMSHGIREGICGKKHSEQVPDILQLNAIFNMLNTKNCPSLKDKPKVIIIQACRGDSPGVVWFKDSVGVSGNLSLPTTEEFEDDAIKKAHIEKDFIAFCSSTPDNVSWRHPTMGSVFIGRLIEHMQEYACSCDVEEIFRKVRFSFEQPDGRAQMPTTERVTLTRCFYLFPGH
Consider B8, for which the “in vitro cleavage” value in series [1] is “The wild-type eIF5A1 is cleaved by caspases 2, 3, 6, 7, 8, 9, and 10 but not by caspase 1”.

(Values after patent US20100076062.)
